Results published in patent publication US20080063651A1 (published 2008).

Target: T1, Recombinant human TNF-α (human, UniProt P01375 77-233)
T1 construct: also called tumor necrosis factor-α; biotinylated TNF-α
Experiment: 35S-labelled free protein with biotinylated TNF-α, biotin capture membrane, phosphorimaging

T1 sequence (P01375 77-233 limits assumed): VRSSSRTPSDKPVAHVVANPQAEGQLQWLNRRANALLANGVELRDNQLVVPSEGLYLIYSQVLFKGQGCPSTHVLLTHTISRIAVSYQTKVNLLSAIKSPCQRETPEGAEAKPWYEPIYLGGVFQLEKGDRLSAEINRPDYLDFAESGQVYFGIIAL

| Kd [µM] | Binder |
| --- | --- |
| 0.004 | clone T09.12 (designed binder) VSDVPRDLEVVAATPTSLLISWRPTSNPPRYYRITYGETGGNSPVQEFTVPPWASTATISGLKPGVDYTITVYAVTAQTGHHLHDKPISINYRT |
| 20 | clone M12.04 (designed binder) VSDVPGDLEVVAATPTSLLIGWSMTPNWPRYYRIAYGETGGDSPVQEFTVPPWASIAIIGGLKPGVDYTITVYAVTHRDTPISINYRT |
